Measurements published in patent US11512128B2, “VEGF/DLL4 binding agents and uses thereof” (MEREO BIOPHARMA 5, INC., priority 2011, dated 2022).

T1: human VEGF165 (Homo sapiens, UniProt P15692)
T1 sequence (P15692 27-191 isoform P15692-4): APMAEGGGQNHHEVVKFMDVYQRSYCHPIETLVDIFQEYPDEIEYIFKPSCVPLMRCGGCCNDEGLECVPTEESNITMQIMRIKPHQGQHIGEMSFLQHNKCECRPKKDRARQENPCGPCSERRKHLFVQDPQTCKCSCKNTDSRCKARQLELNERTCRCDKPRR

B1: 21M18: anti-DLL4 antibody, parental antibody (Hoey et al., 2009; U.S. Pat. No. 7,750,124) (antibody, V domains shown)
VH: QVQLVQSGAEVKKPGASVKISCKASGYSFTAYYIHWVKQAPGQGLEWIGYISSYNGATNYNQKFKGRVTFTTDTSTSTAYMELRSLRSDDTAVYYCARDYDYDVGMDYWGQGTLVTVSS
VL: DIVMTQSPDSLAVSLGERATISCRASESVDNYGISFMKWFQQKPGQPPKLLIYAASNQGSGVPDRFSGSGSGTDFTLTISSLQAEDVAVYYCQQSKEVPWTFGGGTKVEIK
B2: 219R45-MB-21R79: anti-VEGF/anti-DLL4 monovalent/bispecific antibody, heavy chains SEQ ID NO:7 and 6, light chains SEQ ID NO:8 (antibody)
heavy 1: QVQLVQSGAEVKKPGASVKVSCKASGYTFTNYWMHWVRQAPGQGLEWMGDINPSNGRTSYKEKFKRRVTLSVDKSSSTAYMELSSLRSEDTAVYFCTIHYDDKYYPLMDYWGQGTLVTVSSASTKGPSVFPLAPCSRSTSESTAALGCLVKDYFPEPVTVSWNSGALTSGVHTFPAVLQSSGLYSLSSVVTVPSSNFGTQTYTCNVDHKPSNTKVDKTVERKCCVECPPCPAPPVAGPSVFLFPPKPKDTLMISRTPEVTCVVVDVSHEDPEVQFNWYVDGVEVHNAKTKPREEQFNSTFRVVSVLTVVHQDWLNGKEYKCKVSNKGLPAPIEKTISKTKGQPREPQVYTLPPSREKMTKNQVSLTCLVKGFYPSDIAVEWESNGQPENNYKTTPPMLKSDGSFFLYSKLTVDKSRWQQGNVFSCSVMHEALHNHYTQKSLSLSPGK
heavy 2: QVQLVQSGAEVKKPGASVKISCKASGYSFTAYYIHWVKQAPGQGLEWIGYIANYNRATNYNQKFKGRVTFTTDTSTSTAYMELRSLRSDDTAVYYCARDYDYDVGMDYWGQGTLVTVSSASTKGPSVFPLAPCSRSTSESTAALGCLVKDYFPEPVTVSWNSGALTSGVHTFPAVLQSSGLYSLSSVVTVPSSNFGTQTYTCNVDHKPSNTKVDKTVERKCCVECPPCPAPPVAGPSVFLFPPKPKDTLMISRTPEVTCVVVDVSHEDPEVQFNWYVDGVEVHNAKTKPREEQFNSTFRVVSVLTVVHQDWLNGKEYKCKVSNKGLPAPIEKTISKTKGQPREPQVYTLPPSREEMTKNQVSLTCLVEGFYPSDIAVEWESNGQPENNYKTTPPMLDSDGSFFLYSELTVDKSRWQQGNVFSCSVMHEALHNHYTQKSLSLSPGK
light: DIVMTQSPDSLAVSLGERATISCRASESVDNYGISFMKWFQQKPGQPPKLLIYAASNQGSGVPDRFSGSGSGTDFTLTISSLQAEDVAVYYCQQSKEVPWTFGGGTKVEIKRTVAAPSVIFPPSDEQLKSGTASVVCLLNNFYPREAKVQWKVDNALQSGNSQESVTEQDSKDSTYSLSSTLTLSKADYEKHKVYACEVTHQGLSSPVTKSFNRGEC
modifications: 21R79 Heavy chain without predicted signal sequence; Light chain without predicted signal sequence

Legend:
xenograft tumor models = conditions: Hoey et al., 2009; U.S. Pat. No. 7,750,124; cited from earlier work
human VEGF165 = biological target: T1, human VEGF165; assay: Biacore binding affinity (KD) to human VEGF; conditions: Biacore 2000, biotinylated human VEGF165 on streptavidin chip; read-out: KD hVEGF
Protocol: (§1) The KDs of parental antibodies anti-VEGF 219R45 (IgG format), anti-DLL4 21R79 (IgG format), anti-DLL4 21M18 (IgG format) and bispecific antibodies 219R45-MB-21M18 and 219R45-MB-21R79 were determined using a Biacore 2000 system from Biacore LifeSciences (GE Healthcare). Recombinant human DLL4-Fc or mouse DLL4-Fc proteins were immobilized on CM5 carboxyl chips using standard amine-based chemistry (NHS/EDC) and blocked with ethanolamine. Recombinant human VEGF165 or mouse VEGF165 were biotinylated and immobilized on streptavidin chips. The antibodies were serially diluted 2-fold from 100 nM to 0.78 nM in HBS-P (0.01M HEPES pH7.4, 0.15M NaCl, 0.005% v/v Polysorbate 20). For each antibody, all 8 dilutions were sequentially injected over a specific chip. Kinetic data were collected over time and were fit using the simultaneous global fit equation to yield affinity constants (KD values) for each bispecific antibody.

[1] = Non-GLP toxicity study in cynomolgus monkeys; type: in vivo; conditions: after 15 weeks
Protocol: A non-GLP toxicity study in cynomolgus monkeys was initiated to evaluate and compare the toxicity profile of some of the bispecific antibodies. The animals were dosed with 0 mg/kg (control), 5 mg/kg (low dose), or 30 mg/kg (high dose) of anti-DLL4/anti-VEGF bispecific antibody (219R45-MB-21M18, 219R45-MB-21R83, or 219R45-MB-21R79) every 2 weeks via IV infusion. 3 males and 3 females were dosed in each group. After 15 weeks, mean body weights were lower in animals receiving the high dose of 219R45-MB-21R79 than in animals that received the high dose of either […] or 219R45-MB-21R83. In addition, mean serum albumin levels were lower in animals that received 219R45-MB-21R79 than in those that received either […] or 219R45-MB-21R83.

human DLL4-Fc = human DLL4-Fc (Homo sapiens, UniProt Q9NR61); assay: Biacore binding affinity (KD) to human DLL4; conditions: ratio of KD values
Protocol: as §1
Several additional anti-DLL4 antibodies were identified that had binding affinities intermediate to the KDs of 21M18 and 21R79. Two of these anti-DLL4 antibodies were used to produce anti-VEGF/anti-DLL4 bispecific antibodies 219R45-MB-21R75 and 219R45-MB-21R83. Using the Biacore 2000 system as described above, the KDs of the bispecific antibodies 219R45-MB-21R75 and 219R45-MB-21R83 to human DLL4 were determined.

Chain of human DLL4-Fc (Q9NR61 27-522 limits assumed): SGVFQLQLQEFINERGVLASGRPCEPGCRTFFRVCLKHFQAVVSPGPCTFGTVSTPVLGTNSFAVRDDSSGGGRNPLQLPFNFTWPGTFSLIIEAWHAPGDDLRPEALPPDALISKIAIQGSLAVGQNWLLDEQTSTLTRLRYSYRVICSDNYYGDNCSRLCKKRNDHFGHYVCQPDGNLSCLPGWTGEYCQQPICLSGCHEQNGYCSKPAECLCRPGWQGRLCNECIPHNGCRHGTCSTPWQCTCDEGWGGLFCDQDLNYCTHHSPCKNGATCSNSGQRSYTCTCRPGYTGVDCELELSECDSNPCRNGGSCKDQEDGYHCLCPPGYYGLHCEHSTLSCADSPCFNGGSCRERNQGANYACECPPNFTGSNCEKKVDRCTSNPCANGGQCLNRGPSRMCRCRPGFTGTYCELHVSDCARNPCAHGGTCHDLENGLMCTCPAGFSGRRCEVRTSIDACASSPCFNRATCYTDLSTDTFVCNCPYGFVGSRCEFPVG

Molecule | frequency of cancer stem cells in xenograft tumor models (xenograft tumor models) | tumor growth in xenograft tumor models (xenograft tumor models) | Kd (human VEGF165) [nM] | mean serum albumin levels ([1]; every 2 weeks IV infusion) | mean body weights ([1]; high dose 30 mg/kg every 2 weeks IV infusion) | stronger binding to human DLL4 than 219R45-MB-21M18 (human DLL4-Fc)
B1 | reduce the frequency of cancer stem cells | inhibit tumor growth | > 100 |  |  | 
B2 |  |  |  | lower | lower | approximately 30 fold
